According to US20070060497A1, “Reagents for modifying biopharmaceuticals, the use and production thereof” (priority 2003, published 2007):

B1: conjugate composed of L-asparaginase and substance 16: conjugate composed of the compound according to the invention substance 16 and L-asparaginase (conjugate, UniProt P00805 23-348, looked up)
L-asparaginase 2: LPNITILATGGTIAGGGDSATKSNYTVGKVGVENLVNAVPQLKDIANVKGEQVVNIGSQDMNDNVWLTLAKKINTDCDKTDGFVITHGTDTMEETAYFLDLTVKCDKPVVMVGAMRPSTSMSADGPFNLYNAVVTAADKASANRGVLVVMNDTVLDGRDVTKTNTTDVATFKSVNYGPLGYIHNGKIDYQRTPARKHTSDTPFDVSKLNELPKVGIVYNYANASDLPAKALVDAGYDGIVSAGVGNGNLYKSVFDTLATAAKTGTAVVRSSRVPTGATTQDAEVDDAKYGFVASGTLNPQKARVLLQLALTQTKDPQQIQQIFNQY
modifications: conjugated to substance 16
notes: conjugate composed of the compound according to the invention substance 16 and L-asparaginase
B2: conjugate composed of trypsin and substance 16: conjugate composed of the compound according to the invention substance 16 and trypsin (conjugate, UniProt P00760 24-246, looked up)
Serine protease 1: IVGGYTCGANTVPYQVSLNSGYHFCGGSLINSQWVVSAAHCYKSGIQVRLGEDNINVVEGNEQFISASKSIVHPSYNSNTLNNDIMLIKLKSAASLNSRVASISLPTSCASAGTQCLISGWGNTKSSGTSYPDVLKCLKAPILSDSSCKSAYPGQITSNMFCAGYLEGGKDSCQGDSGGPVVCSGKLQGIVSWGSGCAQKNKPGVYTKVCNYVSWIKQTIASN
modifications: conjugated to substance 16
notes: conjugate composed of the compound according to the invention substance 16 and trypsin

What was measured:
L-asparaginase = molecular target: T1, L-asparaginase (Escherichia coli, UniProt P00805); assay: L-asparaginase enzyme activity (ammonium released, quantified with Nessler reagent); type: biochemical
T1 construct: purchased ProThera
From the text: (§1) Determining the enzyme activities: L-asparaginase catalyzes the deamidation of L-asparagine to form L-aspartic acid. In order to determine the enzyme activity, ammonium which was being released in this reaction was quantified using Neβler reagent. Streptokinase activates plasminogen. Plasminogen which has been activated in this way catalyzes the hydrolysis of the tripeptide derivative D-Val-Leu-Lys-para-nitroanilide (S-2251). In order to indirectly determine the activity of streptokinase, the quantity of nitroaniline which was released was quantified photometrically at 405 nm. The para-nitroanilide derivative α-benzoylarginine-para-nitroanilide was used to determine the peptidolytic activity of trypsin, by photometrically quantifying the nitroaniline which was released at 405 nm.
Substance 16 (0.5 eq./0.7 μl, 1 eq./1.4 μl, 2 eq./2.7 μl, 5 eq./6.8 μl, 10 eq./13.7 μl and, respectively, 20 eq./27.3 μl) dissolved in dimethyl sulfoxide (10 mg/ml) was added to 75 μl of a solution of L-asparaginase (0.5 mg/ml) in sodium carbonate buffer (pH 8.5 to 9.5) and the mixture was made up to a total volume of 150 μl using sodium carbonate buffer (pH 8.5 to 9.5). The reaction mixture was incubated at 25° C. and 300 rpm for 1 h on a thermomixer. Excess substance 16 was then removed by means of filtration in centrifuge filtration units (10 kDa cut-off) using water as rinsing liquid.

trypsin = assay: Peptidolytic activity of trypsin (α-benzoylarginine-para-nitroanilide, 405 nm); type: biochemical
From the text: as §1
Substance 16 (0.5 eq./1.5 μl, 1 eq./2.7 μl, 2 eq./5.4 μl, 5 eq./13.8 μl and, respectively, 10 eq./27.3 μl) dissolved in dimethyl sulfoxide (10 mg/ml) was added to 120 μl of a solution of trypsin (1.0 mg/ml) in sodium carbonate buffer (pH 8.5 to 9.5) and the mixture was made up to a total volume of 150 μl using sodium carbonate buffer (pH 8.5 to 9.5). The reaction mixture was incubated at 25° C. and 300 rpm for 1 h on a thermomixer. Excess substance 16 was then removed by means of filtration in centrifuge filtration units (10 kDa cut-off) using water as rinsing liquid.

| Molecule | Residual activity (L-asparaginase; 0.5 eqs. of 16 employed) [%] | Residual activity (L-asparaginase; 1 eq. of 16 employed) [%] | Residual activity (L-asparaginase; 2 eqs. of 16 employed) [%] | Residual activity (L-asparaginase; 5 eqs. of 16 employed) [%] | Residual activity (L-asparaginase; 10 eqs. of 16 employed, degree of modification 41%) [%] | Residual activity (L-asparaginase; 20 eqs. of 16 employed, degree of modification 43%) [%] | Residual activity (trypsin; 0.5 eqs. of 16 employed) [%] | Residual activity (trypsin; 1 eq. of 16 employed) [%] | Residual activity (trypsin; 2 eqs. of 16 employed) [%] | Residual activity (trypsin; 5 eqs. of 16 employed) [%] | Residual activity (trypsin; 10 eqs. of 16 employed, degree of modification 44%) [%] |
| --- | --- | --- | --- | --- | --- | --- | --- | --- | --- | --- | --- |
| B1 | 100 | 100 | 92 | 87 | 75 | 60 |  |  |  |  |  |
| B2 |  |  |  |  |  |  | 104 | 109 | 119 | 136 | 137 |
